# According to the supplement of paper PMC9112550, “Optimization of the antimicrobial peptide Bac7 by deep mutational scanning” (BMC Biology, 2022):
# Test system: Escherichia coli TOP10
# Assay: shrunken log2 fold change of peptide-encoding DNA abundance (4.5 h post-induction vs induction); higher = less antimicrobial activity (less host growth inhibition)
# Conditions: time post-induction: 4.5 h; library: site-saturation at positions 5, 18, 19, 20
# 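Also: peptides expressed intracellularly from a pBAD plasmid library in pooled LB shake-flask culture, induced with 0.3% L-arabinose, DNA abundance read by NGS, three biological replicates, DESeq2 with apeglm shrinkage.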
row,Sequence,shrunken log2 fold change
1,RRIRMRPPRLPRPRPRPETEPRP,3.69
2,RRIRYRPPRLPRPRPRPVLAPRP,-0.037
3,RRIRWRPPRLPRPRPRPIREPRP,0.411
4,RRIRSRPPRLPRPRPRPDSLPRP,0.00187
5,RRIRVRPPRLPRPRPRPNCYPRP,-0.411
6,RRIRVRPPRLPRPRPRPYFVPRP,0.263
7,RRIRQRPPRLPRPRPRPYREPRP,-0.0135
8,RRIRYRPPRLPRPRPRPKNKPRP,-0.444
9,RRIRSRPPRLPRPRPRPYMKPRP,-0.421
10,RRIRGRPPRLPRPRPRPPVNPRP,0.55
11,RRIRKRPPRLPRPRPRPRRVPRP,0.569
12,RRIRGRPPRLPRPRPRPAFGPRP,0.476
13,RRIRDRPPRLPRPRPRPAGHPRP,0.261
14,RRIRDRPPRLPRPRPRPLHEPRP,-0.129
15,RRIRKRPPRLPRPRPRPVGGPRP,0.544
16,RRIRMRPPRLPRPRPRPSCFPRP,-0.145
17,RRIRYRPPRLPRPRPRPKVIPRP,-0.102
18,RRIRKRPPRLPRPRPRPLLWPRP,0.443
19,RRIRTRPPRLPRPRPRPNHDPRP,-0.3
20,RRIRTRPPRLPRPRPRPIVLPRP,-0.145
21,RRIRFRPPRLPRPRPRPLSNPRP,-0.504
22,RRIRKRPPRLPRPRPRPEWGPRP,0.755
23,RRIRQRPPRLPRPRPRPEHAPRP,0.0519
24,RRIRSRPPRLPRPRPRPCRFPRP,-0.0924
25,RRIRPRPPRLPRPRPRPYCYPRP,-0.798

row,Sequence,shrunken log2 fold change
1,RRIRIRPPRLPRPRPRPFTSPRP,-0.475
2,RRIRWRPPRLPRPRPRPDKFPRP,-0.427
3,RRIRPRPPRLPRPRPRPLRNPRP,0.673
4,RRIRERPPRLPRPRPRPHVDPRP,-0.00242
5,RRIRQRPPRLPRPRPRPHHLPRP,-0.122
6,RRIRARPPRLPRPRPRPLIAPRP,0.504
7,RRIRIRPPRLPRPRPRPCHVPRP,-0.401
8,RRIRIRPPRLPRPRPRPDWHPRP,-0.882
9,RRIRMRPPRLPRPRPRPGTVPRP,-0.071
10,RRIRFRPPRLPRPRPRPNGAPRP,-0.105
11,RRIRNRPPRLPRPRPRPNQWPRP,-0.171
12,RRIRIRPPRLPRPRPRPYNRPRP,-0.01
13,RRIRKRPPRLPRPRPRPWWAPRP,-0.287
14,RRIRGRPPRLPRPRPRPVAGPRP,1.12
15,RRIRIRPPRLPRPRPRPECGPRP,-0.118
16,RRIRERPPRLPRPRPRPKDGPRP,0.0062
17,RRIRLRPPRLPRPRPRPAQNPRP,0.57
18,RRIRWRPPRLPRPRPRPNQMPRP,-0.0159
19,RRIRARPPRLPRPRPRPFQFPRP,-0.158
20,RRIRIRPPRLPRPRPRPRFKPRP,-0.575
21,RRIRCRPPRLPRPRPRPWIQPRP,-0.000687
22,RRIRDRPPRLPRPRPRPRESPRP,0.583
23,RRIRGRPPRLPRPRPRPAVSPRP,0.573
24,RRIRPRPPRLPRPRPRPELCPRP,0.277
25,RRIRRRPPRLPRPRPRPDSQPRP,0.157

row,Sequence,shrunken log2 fold change
1,RRIRGRPPRLPRPRPRPYADPRP,0.0582
2,RRIRARPPRLPRPRPRPWNMPRP,-0.046
3,RRIRCRPPRLPRPRPRPSCQPRP,-0.375
4,RRIRSRPPRLPRPRPRPIQSPRP,-0.0288
5,RRIRYRPPRLPRPRPRPRNLPRP,-0.036
6,RRIRGRPPRLPRPRPRPHFWPRP,0.428
7,RRIRFRPPRLPRPRPRPEPGPRP,0.534
8,RRIRLRPPRLPRPRPRPCGSPRP,-0.105
9,RRIRRRPPRLPRPRPRPDPFPRP,0.1
10,RRIRLRPPRLPRPRPRPWPVPRP,0.191
11,RRIRERPPRLPRPRPRPIYLPRP,-0.649
12,RRIRERPPRLPRPRPRPLSHPRP,-0.314
13,RRIRVRPPRLPRPRPRPRPRPRP,0.62
14,RRIRYRPPRLPRPRPRPQAQPRP,0.0442
15,RRIRNRPPRLPRPRPRPIVPPRP,-0.382
16,RRIRRRPPRLPRPRPRPPRRPRP,1.34
17,RRIRHRPPRLPRPRPRPRKCPRP,-0.116
18,RRIRVRPPRLPRPRPRPIRLPRP,-0.419
19,RRIRNRPPRLPRPRPRPCGHPRP,0.0743
20,RRIRARPPRLPRPRPRPFERPRP,-0.0075
21,RRIRHRPPRLPRPRPRPKWAPRP,0.279
22,RRIRARPPRLPRPRPRPLCPPRP,0.0472
23,RRIRCRPPRLPRPRPRPTCCPRP,-0.354
24,RRIRGRPPRLPRPRPRPEMVPRP,2.43
25,RRIRARPPRLPRPRPRPDMAPRP,0.265

row,Sequence,shrunken log2 fold change
1,RRIRMRPPRLPRPRPRPFMTPRP,0.0622
2,RRIRTRPPRLPRPRPRPPCHPRP,-0.164
3,RRIRPRPPRLPRPRPRPYPGPRP,-0.159
4,RRIRLRPPRLPRPRPRPHHEPRP,0.0418
5,RRIRCRPPRLPRPRPRPYAMPRP,-0.436
6,RRIRSRPPRLPRPRPRPPEQPRP,0.306
7,RRIRPRPPRLPRPRPRPDSPPRP,0.0152
8,RRIRGRPPRLPRPRPRPWPTPRP,0.233
9,RRIRMRPPRLPRPRPRPRKKPRP,1.43
10,RRIRARPPRLPRPRPRPELLPRP,0.961
11,RRIRSRPPRLPRPRPRPGLMPRP,0.197
12,RRIRQRPPRLPRPRPRPNSIPRP,-0.21
13,RRIRSRPPRLPRPRPRPNWWPRP,0.022
14,RRIRSRPPRLPRPRPRPDKKPRP,-0.158
15,RRIRARPPRLPRPRPRPKYCPRP,-0.464
16,RRIRGRPPRLPRPRPRPEGSPRP,1.28
17,RRIRHRPPRLPRPRPRPDCSPRP,-0.284
18,RRIRPRPPRLPRPRPRPMPNPRP,0.156
19,RRIRMRPPRLPRPRPRPGPPPRP,1.23
20,RRIRDRPPRLPRPRPRPEECPRP,-0.00963
21,RRIRLRPPRLPRPRPRPGTYPRP,0.386
22,RRIRARPPRLPRPRPRPDSDPRP,-0.0357
23,RRIRYRPPRLPRPRPRPPSAPRP,0.388
24,RRIRPRPPRLPRPRPRPYYIPRP,-0.88
25,RRIRPRPPRLPRPRPRPIPVPRP,-0.402

row,Sequence,shrunken log2 fold change
1,RRIRMRPPRLPRPRPRPWADPRP,-0.108
2,RRIRGRPPRLPRPRPRPGYYPRP,-0.301
3,RRIRSRPPRLPRPRPRPGRQPRP,-0.00462
4,RRIRIRPPRLPRPRPRPWSAPRP,-0.649
5,RRIRIRPPRLPRPRPRPSWPPRP,-0.227
6,RRIRTRPPRLPRPRPRPIDKPRP,-0.175
7,RRIRTRPPRLPRPRPRPFPDPRP,-0.123
8,RRIRTRPPRLPRPRPRPQATPRP,0.119
9,RRIRNRPPRLPRPRPRPDGTPRP,-0.128
10,RRIRTRPPRLPRPRPRPGYWPRP,-0.0903
11,RRIRGRPPRLPRPRPRPITQPRP,-0.0614
12,RRIRFRPPRLPRPRPRPCCSPRP,-0.139
13,RRIRFRPPRLPRPRPRPVNCPRP,-0.15
14,RRIRARPPRLPRPRPRPTGSPRP,0.841
15,RRIRFRPPRLPRPRPRPANSPRP,-0.448
16,RRIRTRPPRLPRPRPRPTQNPRP,0.385
17,RRIRVRPPRLPRPRPRPDACPRP,-0.11
18,RRIRSRPPRLPRPRPRPVFEPRP,-0.0222
19,RRIRVRPPRLPRPRPRPVLGPRP,0.299
20,RRIRCRPPRLPRPRPRPLIRPRP,-0.109
21,RRIRTRPPRLPRPRPRPKKEPRP,-0.0512
22,RRIRPRPPRLPRPRPRPKFGPRP,-0.0973
23,RRIRNRPPRLPRPRPRPQFVPRP,-0.0944
24,RRIRRRPPRLPRPRPRPIHIPRP,-0.579
25,RRIRRRPPRLPRPRPRPAMNPRP,0.0496

row,Sequence,shrunken log2 fold change
1,RRIRRRPPRLPRPRPRPTCRPRP,0.41
2,RRIRPRPPRLPRPRPRPDSLPRP,-0.257
3,RRIRMRPPRLPRPRPRPKIIPRP,0.102
4,RRIRFRPPRLPRPRPRPGVGPRP,0.358
5,RRIRPRPPRLPRPRPRPYWMPRP,-1.06
6,RRIRYRPPRLPRPRPRPKVSPRP,-0.0576
7,RRIRGRPPRLPRPRPRPETFPRP,1.08
8,RRIRYRPPRLPRPRPRPIYQPRP,-0.614
9,RRIRVRPPRLPRPRPRPASAPRP,0.309
10,RRIRCRPPRLPRPRPRPRDDPRP,0.274
11,RRIRVRPPRLPRPRPRPPWWPRP,0.665
12,RRIRWRPPRLPRPRPRPRRIPRP,0.109
13,RRIRCRPPRLPRPRPRPHDVPRP,-0.314
14,RRIRSRPPRLPRPRPRPYRYPRP,-0.262
15,RRIRYRPPRLPRPRPRPLFHPRP,-0.818
16,RRIRIRPPRLPRPRPRPMCCPRP,-0.212
17,RRIRYRPPRLPRPRPRPGILPRP,-0.0404
18,RRIRGRPPRLPRPRPRPKQQPRP,0.228
19,RRIRHRPPRLPRPRPRPCLQPRP,-0.148
20,RRIRNRPPRLPRPRPRPNYPPRP,-0.0819
21,RRIRRRPPRLPRPRPRPTTWPRP,0.28
22,RRIRTRPPRLPRPRPRPCRMPRP,-0.261
23,RRIRLRPPRLPRPRPRPKCAPRP,0.0163
24,RRIRIRPPRLPRPRPRPRMCPRP,0.242
25,RRIRQRPPRLPRPRPRPHVNPRP,0.0398
